Measured values: article PMC3020915
Where “and” joins values, the source holds several entries; their conditions need not be identical. Identical values can stand only once.

B1: MBP-Nt (mDia2 N-terminus, 1-528) (domain or fragment)
chain: MERHRARALGRDSKSSRRKGLQSAPPAGPYEPGEKRPKLHLNIRTLTDDMLDKFASIRIPGSKKERPPLPHLKTVSGISDSSSLSSETMENNPKALPESEVLKLFEKMMEDMNLNEDKKAPLREKDFGIKKEMVMQYINTASKTGSLRSSRQISPQEFLHELKMGYTDERLFTYLESLRVSLTSHPVSWVQSFGHEGLGLLLDILEKLINGQIQEKVVKKTQHKVIQCLRALMNTQYGLERIMSDKRSLSLLAKAMDPRQPAMMADVVKLLSAVCIVGEESILEEVLEALTSAGEERKIDRFFSIVEGLRHNSVNLQVACMQLINALVTSPDDLDFRLHLRNEFMRCGLKEILPNLKGIKNDGLDIQLKVFDEHKEEDLSEFFHRLEDIRAELDEASDVYSMLWDTVKETRAEGHFLSILQHLLLIRNDRFIREQYFKLIDECVSQIVLHRDGTDPDFTYRKRLDLDLSQFVDVCIDQAKLDEWEEKASEHCKKFEKECTDHQETQAQLQKREAKINELQAELQAFKS
B2: MBP-NtΔBD (mDia2 91-528) (domain or fragment)
chain: NNPKALPESEVLKLFEKMMEDMNLNEDKKAPLREKDFGIKKEMVMQYINTASKTGSLRSSRQISPQEFLHELKMGYTDERLFTYLESLRVSLTSHPVSWVQSFGHEGLGLLLDILEKLINGQIQEKVVKKTQHKVIQCLRALMNTQYGLERIMSDKRSLSLLAKAMDPRQPAMMADVVKLLSAVCIVGEESILEEVLEALTSAGEERKIDRFFSIVEGLRHNSVNLQVACMQLINALVTSPDDLDFRLHLRNEFMRCGLKEILPNLKGIKNDGLDIQLKVFDEHKEEDLSEFFHRLEDIRAELDEASDVYSMLWDTVKETRAEGHFLSILQHLLLIRNDRFIREQYFKLIDECVSQIVLHRDGTDPDFTYRKRLDLDLSQFVDVCIDQAKLDEWEEKASEHCKKFEKECTDHQETQAQLQKREAKINELQAELQAFKS

Target: GST-Rif Q75L (UniProt Q9HBH0)
Experiment: pull-down

Binder	fold increase of band intensity over the GST control
B1	2.4 fold and 3.8 fold
B2	6 fold and 9.2 fold
